Drawing on paper PMC9937922, this text covers percent reduction of the interaction against WT ENO1 for one substance.

The experiment concerns the target proliferating cell nuclear antigen (PCNA) (human (endogenous in HAP1)) (UniProt P12004). Nature of the experiment: co-IP; Dynabeads Protein A cross-linked (BS3) with α-PCNA (PC10) or α-ENO1 (ab227978); 2 mg HAP1 cytosolic cell extract, 4 °C overnight; washes with 600 mM NaCl; western blot; both directions.
Chain of UniProt P12004 (P12004 whole entry): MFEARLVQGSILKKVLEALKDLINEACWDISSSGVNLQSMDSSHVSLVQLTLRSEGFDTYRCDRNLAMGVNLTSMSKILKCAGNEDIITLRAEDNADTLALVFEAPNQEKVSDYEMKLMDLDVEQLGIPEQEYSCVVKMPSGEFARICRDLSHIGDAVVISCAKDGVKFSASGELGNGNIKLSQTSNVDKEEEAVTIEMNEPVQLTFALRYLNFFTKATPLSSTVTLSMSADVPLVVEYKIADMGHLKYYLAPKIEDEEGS

“ENO1 F423A (from UniProt P06733 1-434) (enzyme)” returned a percent reduction of the interaction against WT ENO1 of 80 to 90%.
